Holding throughout (assay): global alanine scanning epitope mapping
One experiment concerns the target HMAb 212.1.1. The following applies: antibody at 2 μg/ml.
The target in another experiment is HMAb HC-11. The following applies: antibody at 1 μg/ml.
The target in a further experiment is HC84.26. Particulars: antibody at 1 μg/ml.
A further experiment concerns the target HMAb CBH-5. Particulars: antibody at 1 μg/ml.
Another experiment deals with HC-1. Particulars: antibody at 1 μg/ml.
The target in another experiment is HMAb CBH-7. Particulars: antibody at 1 μg/ml.

As to “H77C 1a recombinant E1E2 (from UniProt P27958) G530A”, the percent of parent came out at 9 % WT in the experiment with HMAb 212.1.1; 3 % WT with HMAb HC-11; 71 % WT with HC84.26; 76 % WT with HMAb CBH-5; 14 % WT in the experiment with HC-1.
Consider “H77C 1a recombinant E1E2 (from UniProt P27958) N532A”, for which the percent of parent stood at 152 % WT with HMAb 212.1.1; 71 % WT in the experiment with HMAb HC-11; 108 % WT in the experiment with HC84.26; 108 % WT with HMAb CBH-5; 82 % WT with HC-1; 101 % WT in the experiment with HMAb CBH-7.
In the case of “H77C 1a recombinant E1E2 (from UniProt P27958) G547A”, the percent of parent with HMAb 212.1.1 was determined as 57 % WT; with HMAb HC-11, 36 % WT; with HMAb CBH-5, 30 % WT; in the experiment with HMAb CBH-7 it was 28 % WT.
“H77C 1a recombinant E1E2 (from UniProt P27958) D533A”: the percent of parent with HMAb 212.1.1 worked out at 99 % WT; in the experiment with HMAb HC-11 it was 66 % WT; with HC84.26, 93 % WT; with HMAb CBH-5 it was 54 % WT; with HC-1, 73 % WT; in the experiment with HMAb CBH-7, 77 % WT.
For the substance “H77C 1a recombinant E1E2 (from UniProt P27958) G436A”, the percent of parent with HMAb 212.1.1 came out at 103 % WT; with HMAb HC-11, 0 % WT; with HMAb CBH-5 it was 11 % WT; with HC-1 it was 73 % WT; with HMAb CBH-7 it was 78 % WT.
Regarding “H77C 1a recombinant E1E2 (from UniProt P27958) A439G”, the percent of parent in the experiment with HMAb 212.1.1 was found to be 84 % WT; with HC84.26, 108 % WT; in the experiment with HMAb CBH-5, 53 % WT; with HC-1 it was 83 % WT.
Consider “H77C 1a recombinant E1E2 (from UniProt P27958) W549A”, for which the percent of parent in the experiment with HMAb 212.1.1 was 66 % WT; with HMAb HC-11, 50 % WT; with HMAb CBH-5, 46 % WT; in the experiment with HMAb CBH-7 it was 5 % WT.
In the case of “H77C 1a recombinant E1E2 (from UniProt P27958) E637A”, the percent of parent turned out to be 202 % WT with HMAb HC-11, 40 % WT with HMAb CBH-5, 246 % WT with HC-1 and 145 % WT in the experiment with HMAb CBH-7.
With “H77C 1a recombinant E1E2 (from UniProt P27958) W437A”, the percent of parent is 58 % WT in the experiment with HMAb 212.1.1; 0 % WT in the experiment with HMAb HC-11; 98 % WT in the experiment with HC84.26; 3 % WT with HMAb CBH-5; 67 % WT in the experiment with HC-1.
On to “H77C 1a recombinant E1E2 (from UniProt P27958) G440A”, for which the percent of parent in the experiment with HMAb 212.1.1 was 83 % WT; in the experiment with HC84.26, 82 % WT; with HMAb CBH-5, 86 % WT; with HC-1, 73 % WT; with HMAb CBH-7 it was 77 % WT.
Take “H77C 1a recombinant E1E2 (from UniProt P27958) S432A”: the percent of parent amounted to 108 % WT with HMAb 212.1.1; 57 % WT in the experiment with HMAb HC-11; 102 % WT with HC84.26; 73 % WT with HMAb CBH-5; 104 % WT with HMAb CBH-7.
Turning to “H77C 1a recombinant E1E2 (from UniProt P27958) V636A”, the percent of parent stood at 77 % WT in the experiment with HMAb 212.1.1; 63 % WT in the experiment with HMAb HC-11; 72 % WT in the experiment with HC84.26; 34 % WT with HMAb CBH-5; 89 % WT in the experiment with HC-1.
With “H77C 1a recombinant E1E2 (from UniProt P27958) C429A”, the percent of parent stood at 0 % WT in the experiment with HMAb 212.1.1; 0 % WT in the experiment with HMAb HC-11; 24 % WT in the experiment with HC84.26; 2 % WT with HMAb CBH-5; 0 % WT in the experiment with HC-1; 157 % WT with HMAb CBH-7.
On to “H77C 1a recombinant E1E2 (from UniProt P27958) A426G”, for which the percent of parent in the experiment with HMAb 212.1.1 worked out at 8 % WT; with HMAb HC-11, 23 % WT; in the experiment with HC84.26 it was 88 % WT; with HMAb CBH-5, 0 % WT; with HC-1, 35 % WT; with HMAb CBH-7, 253 % WT.
Regarding “H77C 1a recombinant E1E2 (from UniProt P27958) P544A”, the percent of parent with HMAb 212.1.1 is 72 % WT; with HMAb HC-11, 41 % WT; in the experiment with HMAb CBH-5 it was 45 % WT; with HMAb CBH-7 it was 39 % WT.
Regarding “H77C 1a recombinant E1E2 (from UniProt P27958) T534A”, the percent of parent stood at 162 % WT in the experiment with HMAb 212.1.1; 83 % WT with HMAb HC-11; 116 % WT with HC84.26; 125 % WT with HMAb CBH-5; 88 % WT with HC-1; 101 % WT with HMAb CBH-7.
For “H77C 1a recombinant E1E2 (from UniProt P27958) L441A”, the percent of parent in the experiment with HMAb 212.1.1 came to 92 % WT; in the experiment with HMAb HC-11, 75 % WT; with HC84.26, 12 % WT; with HMAb CBH-5, 0 % WT; with HC-1, 85 % WT; with HMAb CBH-7 it was 100 % WT.
As for “H77C 1a recombinant E1E2 (from UniProt P27958) N428A”, the percent of parent came to 15 % WT with HMAb 212.1.1; 7 % WT in the experiment with HMAb HC-11; 74 % WT in the experiment with HC84.26; 0 % WT with HMAb CBH-5; 34 % WT with HC-1; 134 % WT in the experiment with HMAb CBH-7.
In the case of “H77C 1a recombinant E1E2 (from UniProt P27958) Y443A”, the percent of parent with HMAb 212.1.1 turned out to be 158 % WT; with HMAb HC-11 it was 1 % WT; with HC84.26, 52 % WT; in the experiment with HMAb CBH-5, 0 % WT; with HC-1, 87 % WT; with HMAb CBH-7, 82 % WT.
As to “H77C 1a recombinant E1E2 (from UniProt P27958) N548A”, the percent of parent with HMAb HC-11 turned out to be 70 % WT; with HC84.26, 85 % WT; in the experiment with HMAb CBH-5, 51 % WT; with HC-1 it was 88 % WT.
For the substance “H77C 1a recombinant E1E2 (from UniProt P27958) T435A”, the percent of parent with HMAb 212.1.1 is 86 % WT; in the experiment with HMAb HC-11, 49 % WT; with HC84.26 it was 117 % WT; in the experiment with HMAb CBH-5, 46 % WT; with HC-1, 67 % WT; with HMAb CBH-7 it was 89 % WT.
In the case of “H77C 1a recombinant E1E2 (from UniProt P27958) S424A”, the percent of parent was 41 % WT with HMAb 212.1.1; 18 % WT with HMAb HC-11; 75 % WT in the experiment with HC84.26; 10 % WT with HMAb CBH-5; 53 % WT with HC-1; 163 % WT with HMAb CBH-7.
With “H77C 1a recombinant E1E2 (from UniProt P27958) P545A”, the percent of parent is 70 % WT with HMAb 212.1.1; 42 % WT in the experiment with HMAb HC-11; 69 % WT with HC84.26; 42 % WT in the experiment with HMAb CBH-5; 78 % WT with HC-1; 42 % WT with HMAb CBH-7.
As to “H77C 1a recombinant E1E2 (from UniProt P27958) N434A”, the percent of parent came to 18 % WT in the experiment with HMAb 212.1.1; 88 % WT with HMAb HC-11; 97 % WT with HC84.26; 92 % WT with HMAb CBH-5; 102 % WT in the experiment with HC-1.
For the substance “H77C 1a recombinant E1E2 (from UniProt P27958) H638A”, the percent of parent with HMAb 212.1.1 came out at 26 % WT; in the experiment with HMAb HC-11, 27 % WT; with HC84.26, 34 % WT; with HMAb CBH-5 it was 6 % WT; in the experiment with HC-1, 47 % WT; with HMAb CBH-7 it was 42 % WT.
“H77C 1a recombinant E1E2 (from UniProt P27958) L546A”: the percent of parent in the experiment with HMAb 212.1.1 worked out at 139 % WT; in the experiment with HMAb HC-11, 92 % WT; with HC84.26, 100 % WT; with HMAb CBH-5 it was 92 % WT; with HC-1 it was 100 % WT; in the experiment with HMAb CBH-7, 112 % WT.
With “H77C 1a recombinant E1E2 (from UniProt P27958) T425A”, the percent of parent with HMAb 212.1.1 came to 18 % WT; in the experiment with HMAb HC-11, 10 % WT; with HC84.26, 69 % WT; with HMAb CBH-5, 1 % WT; in the experiment with HC-1, 51 % WT; in the experiment with HMAb CBH-7, 101 % WT.
For the substance “H77C 1a recombinant E1E2 (from UniProt P27958) W529A”, the percent of parent amounted to 9 % WT with HMAb 212.1.1; 23 % WT with HMAb HC-11; 122 % WT with HC84.26; 35 % WT in the experiment with HMAb CBH-5; 0 % WT with HC-1; 187 % WT in the experiment with HMAb CBH-7.
Take “H77C 1a recombinant E1E2 (from UniProt P27958) E431A”: the percent of parent with HMAb 212.1.1 worked out at 147 % WT; with HMAb HC-11, 64 % WT; with HC84.26, 105 % WT; with HMAb CBH-5, 224 % WT; with HC-1, 97 % WT; with HMAb CBH-7, 101 % WT.
As to “H77C 1a recombinant E1E2 (from UniProt P27958) F442A”, the percent of parent in the experiment with HMAb 212.1.1 amounted to 148 % WT; with HMAb HC-11, 1 % WT; with HMAb CBH-5 it was 1 % WT; with HMAb CBH-7, 113 % WT.
In the case of “H77C 1a recombinant E1E2 (from UniProt P27958) D535A”, the percent of parent turned out to be 6 % WT with HMAb 212.1.1; 1 % WT with HMAb HC-11; 0 % WT in the experiment with HMAb CBH-5; 14 % WT with HC-1; 116 % WT with HMAb CBH-7.
Consider “H77C 1a recombinant E1E2 (from UniProt P27958) N430A”, for which the percent of parent with HMAb 212.1.1 was determined as 143 % WT; with HC84.26, 85 % WT; with HC-1 it was 39 % WT; with HMAb CBH-7, 155 % WT.
For the substance “H77C 1a recombinant E1E2 (from UniProt P27958) L438A”, the percent of parent in the experiment with HMAb 212.1.1 was found to be 87 % WT; with HMAb HC-11, 1 % WT; in the experiment with HC84.26 it was 122 % WT; in the experiment with HMAb CBH-5 it was 4 % WT; in the experiment with HC-1 it was 77 % WT; in the experiment with HMAb CBH-7, 89 % WT.
